Measured values reported in US20150266922.

Tests used:
SLRFLYEG (SEQ ID NO: 38) = target: T1, SLRFLYEG (SEQ ID NO: 38)
T1 chain: SLRFLYEG

[1] = target: T2, SUMO1 EIL peptide SLRFLFEGQRIADNH (SEQ ID NO: 1)
T2 chain: SLRFLFEGQRIADNH

[2] = target: RanGAP modified with SUMO1, P63165

B1: Dipeptidyl peptidase IV (DPPIV) (protein)
chain: SRKTYTLTDYLKNTYRLKLYSLRWISDHEYLYKQENNILVFNAEYGNSSVFLENSTFDEFGHSINDYSISPDGQFILLEYNYVKQWRHSYTASYDIYDLNKRQLITEERIPNNTQWVTWSPVGHKLAYVWNNDIYVKIEPNLPSYRITWTGKEDIIYNGITDWVYEEEVFSAYSALWWSPNGTFLAYAQFNDTEVPLIEYSFYSDESLQYPKTVRVPYPKAGAVNPTVKFFVVNTDSLSSVTNATSIQITAPASMLIGDHYLCDVTWATQERISLQWLRRIQNYSVMDICDYDESSGRWNCLVARQHIEMSTTGWVGRFRPSEPHFTLDGNSFYKIISNEEGYRHICYFQIDKKDCTFITKGTWEVIGIEALTSDYLYYISNEYKGMPGGRNLYKIQLSDYTKVTCLSCELNPERCQYYSVSFSKEAKYYQLRCSGPGLPLYTLHSSVNDKGLRVLEDNSALDKMLQNVQMPSKKLDFIILNETKFWYQMILPPHFDKSKKYPLLLDVYAGPCSQKADTVFRLNWATYLASTENIIVASFDGRGSGYQGDKIMHAINRRLGTFEVEDQIEAARQFSKMGFVDNKRIAIWGWSYGGYVTSMVLGSGSGVFKCGIAVAPVSRWEYYDSVYTERYMGLPTPEDNLDHYRNSTVMSRAENFKQVEYLLIHGTADDNVHFQQSAQISKALVDVGVDFQAMWYTDEDHGIASSTAHQHIYTHMSHFIKQCFSLP
SLRFLYEG (SEQ ID NO: 38)
  hydrolysis of GP-AMC by DPPIV: It has no inhibitory effect towards DPPIV, in the concentrations measured (up to 50 µM)
[1]
  hydrolysis of GP-AMC by DPPIV: DPPIV is not inhibited by the EIL peptide, also in the presence of 13 µM peptide

B2: Dipeptidyl peptidase 8 (DPP8), recombinant (protein)
chain: MWKRSEQMKIKSGKCNMAAAMETEQLGVEIFETADCEENIESQDRPKLEPFYVERYSWSQLKKLLADTRKYHGYMMAKAPHDFMFVKRNDPDGPHSDRIYYLAMSGENRENTLFYSEIPKTINRAAVLMLSWKPLLDLFQATLDYGMYSREEELLRERKRIGTVGIASYDYHQGSGTFLFQAGSGIYHVKDGGPQGFTQQPLRPNLVETSCPNIRMDPKLCPADPDWIAFIHSNDIWISNIVTREERRLTYVHNELANMEEDARSAGVATFVLQEEFDRYSGYWWCPKAETTPSGGKILRILYEENDESEVEIIHVTSPMLETRRADSFRYPKTGTANPKVTFKMSEIMIDAEGRIIDVIDKELIQPFEILFEGVEYIARAGWTPEGKYAWSILLDRSQTRLQIVLISPELFIPVEDDVMERQRLIESVPDSVTPLIIYEETTDIWINIHDIFHVFPQSHEEEIEFIFASECKTGFRHLYKITSILKESKYKRSSGGLPAPSDFKCPIKEEIAITSGEWEVLGRHGSNIQVDEVRRLVYFEGTKDSPLEHHLYVVSYVNPGEVTRLTDRGYSHSCCISQHCDFFISKYSNQKNPHCVSLYKLSSPEDDPTCKTKEFWATILDSAGPLPDYTPPEIFSFESTTGFTLYGMLYKPHDLQPGKKYPTVLFIYGGPQVQLVNNRFKGVKYFRLNTLASLGYVVVVIDNRGSCHRGLKFEGAFKYKMGQIEIDDQVEGLQYLASRYDFIDLDRVGIHGWSYGGYLSLMALMQRSDIFRVAIAGAPVTLWIFYDTGYTERYMGHPDQNEQGYYLGSVAMQAEKFPSEPNRLLLLHGFLDENVHFAHTSILLSFLVRAGKPYDLQIYPQERHSIRVPESGEHYELHLLHYLQENLGSRIAALKVI
[1]
  hydrolysis of GP-AMC by recombinant DPP8: pure recombinant DPP8 and DPP9 are inhibited by the EIL peptide, also in the absence of SUMO1

B3: Dipeptidyl peptidase 9 (DPP9), recombinant wild-type (protein)
chain: MRKVKKLRLDKENTGSWRSFSLNSEGAERMATTGTPTADRGDAAATDDPAARFQVQKHSWDGLRSIIHGSRKYSGLIVNKAPHDFQFVQKTDESGPHSHRLYYLGMPYGSRENSLLYSEIPKKVRKEALLLLSWKQMLDHFQATPHHGVYSREEELLRERKRLGVFGITSYDFHSESGLFLFQASNSLFHCRDGGKNGFMVSPMKPLEIKTQCSGPRMDPKICPADPAFFSFINNSDLWVANIETGEERRLTFCHQGLSNVLDDPKSAGVATFVIQEEFDRFTGYWWCPTASWEGSEGLKTLRILYEEVDESEVEVIHVPSPALEERKTDSYRYPRTGSKNPKIALKLAEFQTDSQGKIVSTQEKELVQPFSSLFPKVEYIARAGWTRDGKYAWAMFLDRPQQWLQLVLLPPALFIPSTENEEQRLASARAVPRNVQPYVVYEEVTNVWINVHDIFYPFPQSEGEDELCFLRANECKTGFCHLYKVTAVLKSQGYDWSEPFSPGEDEFKCPIKEEIALTSGEWEVLARHGSKIWVNEETKLVYFQGTKDTPLEHHLYVVSYEAAGEIVRLTTPGFSHSCSMSQNFDMFVSHYSSVSTPPCVHVYKLSGPDDDPLHKQPRFWASMMEAASCPPDYVPPEIFHFHTRSDVRLYGMIYKPHALQPGKKHPTVLFVYGGPQVQLVNNSFKGIKYLRLNTLASLGYAVVVIDGRGSCQRGLRFEGALKNQMGQVEIEDQVEGLQFVAEKYGFIDLSRVAIHGWSYGGFLSLMGLIHKPQVFKVAIAGAPVTVWMAYDTGYTERYMDVPENNQHGYEAGSVALHVEKLPNEPNRLLILHGFLDENVHFFHTNFLVSQLIRAGKPYQLQIYPNERHSIRCPESGEHYEVTLLHFLQEYL
SUMO1, P63165
  hydrolysis rate of GP-AMC by DPP9: the hydrolysis rate of GP-AMC by DPP9 was increased in the presence of SUMO1 in comparison to control reactions
SUMO2R61L, P61956
Sequence of SUMO2R61L, P61956 (P61956 1-93 R61L): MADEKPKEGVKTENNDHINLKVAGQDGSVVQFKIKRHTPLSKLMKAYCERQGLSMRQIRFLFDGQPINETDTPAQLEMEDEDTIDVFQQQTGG
  hydrolysis of GP-AMC by DPP9: This activation was not observed in the presence of SUMO2R61L
[2]
  hydrolysis of GP-AMC by DPP9: DPP9 activity is increased when incubated with RanGAP modified by SUMO1, but not by unmodified RanGAP
SUMO2D71H, P61956
Sequence of SUMO2D71H, P61956 (P61956 other isoform, or with tags, fused parts or gaps): as the sequence (P61956 1-93 R61L) above, with L61R, D71H counted along it
  hydrolysis of GP-AMC by DPP9: DPP9 activity was increased in the presence of SUMO2 mutated in a single amino acid: D71H
SUMO1E67A, P63165
  hydrolysis of GP-AMC by DPP9: this activation was not observed in the presence of SUMO1 mutated in a single amino acid: SUMO1E67A
RanGAP
  hydrolysis of GP-AMC by DPP9: DPP9 activity is increased when incubated with RanGAP modified by SUMO1, but not by unmodified RanGAP
[1]
  hydrolysis of GP-AMC by recombinant DPP9: pure recombinant DPP8 and DPP9 are inhibited by the EIL peptide, also in the absence of SUMO1
SUMO2, P61956
Sequence of SUMO2, P61956 (P61956 1-93): as the sequence (P61956 1-93 R61L) above, with L61R counted along it
  hydrolysis of GP-AMC by DPP9: SUMO1 but not SUMO2 can regulate DPP9 activity
